Reference: US20230331848A1 (BIOSION, published 2023)

B1: humanized antibody huE1A9C8A7-V5 (antibody, human IgG4 S228P, kappa)
heavy: not shown
light: DIVMTQTPLSLPVTPGEPASISCRSSQSIVHSNGNTYLEWYLQKPGQSPQLLIYKVSNRFSGVPDRFSGSGSGTDFTLKISRVEAEDVGVYYCFQGSHVPYTFGGGTKVEIKRTVAAPSVFIFPPSDEQLKSGTASVVCLLNNFYPREAKVQWKVDNALQSGNSQESVTEQDSKDSTYSLSSTLTLSKADYEKHKVYACEVTHQGLSSPVTKSFNRGEC
notes: Human IgG4/kappa
B2: humanized antibody huE1A9C8A7-V7 (antibody, human IgG4 S228P, kappa, V domains shown)
VH: QVQLVQSGAEVVKPGASVKISCKASGYTFTDYVMHWVRQAPGQGLEWIGVISTYHIPAVYNQKFKGKATMTVDTSTSTVYLELSSLRSEDTAVYYCAREVYGDSYYFDVWGQGTTVTVSS
VL: DIVMTQTPLSLPVTPGEPASISCRSSQSIVHSNGNTYLEWYLQKPGQSPQLLIYKVSNRFSGVPDRFSGSGSGTDFTLKISRVEAEDVGVYYCFQGSHVPYTFGGGTKVEIKR
notes: Human IgG4/kappa
B3: humanized antibody huE1A9C8A7-V2 (antibody, human IgG4 S228P, kappa, V domains shown)
VH: QVQLVQSGAEVVKPGASVKISCKASGYTFTDYVMHWMRQAPGQSLEWIGVISTYHIPAVYNQKFKGKATMTVDKSTSTVYLELSSLRSEDTAVYYCAREVYGDSYYFDVWGQGTTVTVSS
VL: DIVMTQTPLSLPVTPGEPASISCRSSQSIVHSNGNTYLEWYLQKPGQSPQLLIYKVSNRFSGVPDRFSGSGSGTDFTLKISRVEAEDVGVYYCFQGSHVPYTFGGGTKVEIKR
notes: Human IgG4/kappa
B4: humanized antibody huE1A9C8A7-V10 (antibody, human IgG4 S228P, kappa, V domains shown)
VH: QVQLVQSGAEVVKPGASVKISCKASGYTFTDYVMHWVRQAPGQSLEWIGVISTYHIPAVYNQKFKGKVTMTVDTSTSTVYLELSSLRSEDTAVYYCAREVYGDSYYFDVWGQGTTVTVSS
VL: DIVMTQTPLSLPVTPGEPASISCRSSQSIVHSNGNTYLEWYLQKPGQSPQLLIYKVSNRFSGVPDRFSGSGSGTDFTLKISRVEAEDVGVYYCFQGSHVPYTFGGGTKVEIKR
notes: Human IgG4/kappa
B5: humanized antibody huE1A9C8A7-V1 (antibody, human IgG4 S228P, kappa, V domains shown)
VH: QVQLVQSGAEVVKPGASVKISCKASGYTFSDYVMHWMRQAPGQSLEWIGVISTYHIPAVYNQKFKGKATMTVDKSTSTVYLELSSLRSEDTAVYYCAREVYGDSYYFDVWGQGTTVTVSS
VL: DIVMTQTPLSLPVTPGEPASISCRSSQSIVHSNGNTYLEWYLQKPGQSPQLLIYKVSNRFSGVPDRFSGSGSGTDFTLKISRVEAEDVGVYYCFQGSHVPYTFGGGTKVEIKR
notes: Human IgG4/kappa
B6: humanized antibody huE1A9C8A7-V6 (antibody, human IgG4 S228P, kappa)
heavy: not shown
light: DIVMTQTPLSLPVTPGEPASISCRSSQSIVHSNGNTYLEWYLQKPGQSPQLLIYKVSNRFSGVPDRFSGSGSGTDFTLKISRVEAEDVGVYYCFQGSHVPYTFGGGTKVEIKRTVAAPSVFIFPPSDEQLKSGTASVVCLLNNFYPREAKVQWKVDNALQSGNSQESVTEQDSKDSTYSLSSTLTLSKADYEKHKVYACEVTHQGLSSPVTKSFNRGEC
notes: Human IgG4/kappa
B7: humanized antibody huE1A9C8A7-V11 (antibody, human IgG4 S228P, kappa, V domains shown)
VH: QVQLVQSGAEVVKPGASVKISCKASGYTFTDYVMHWVRQAPGQSLEWIGVISTYHIPAVYNQKFKGKATMTRDTSTSTVYLELSSLRSEDTAVYYCAREVYGDSYYFDVWGQGTTVTVSS
VL: DIVMTQTPLSLPVTPGEPASISCRSSQSIVHSNGNTYLEWYLQKPGQSPQLLIYKVSNRFSGVPDRFSGSGSGTDFTLKISRVEAEDVGVYYCFQGSHVPYTFGGGTKVEIKR
notes: Human IgG4/kappa
B8: humanized antibody huE1A9C8A7-V9 (antibody, human IgG4 S228P, kappa, V domains shown)
VH: QVQLVQSGAEVVKPGASVKISCKASGYTFTDYVMHWVRQAPGQSLEWIGVISTYHIPAVYNQKFKGRATMTVDTSTSTVYLELSSLRSEDTAVYYCAREVYGDSYYFDVWGQGTTVTVSS
VL: DIVMTQTPLSLPVTPGEPASISCRSSQSIVHSNGNTYLEWYLQKPGQSPQLLIYKVSNRFSGVPDRFSGSGSGTDFTLKISRVEAEDVGVYYCFQGSHVPYTFGGGTKVEIKR
notes: Human IgG4/kappa
B9: humanized antibody huE1A9C8A7-V4 (antibody, human IgG4 S228P, kappa, V domains shown)
VH: QVQLVQSGAEVVKPGASVKISCKASGYTFSDYVMHWMRQAPGQSLEWIGVISTYHIPAVYNQKFKGKATMTVDTSTSTVYLELSSLRSEDTAVYYCAREVYGDSYYFDVWGQGTTVTVSS
VL: DIVMTQTPLSLPVTPGEPASISCRSSQSIVHSNGNTYLEWYLQKPGQSPQLLIYKVSNRFSGVPDRFSGSGSGTDFTLKISRVEAEDVGVYYCFQGSHVPYTFGGGTKVEIKR
notes: Human IgG4/kappa

Key:
[1] = biological target: T1, human PD-1 expressed on GS-J2/PD-1 cells (Genscript) (human, UniProt Q15116 25-288); experiment: cell-based or functional assay
[2] = biological target: T1, human PD-1 expressed on GS-J2/PD-1 …; experiment: flow cytometry on GS-J2/PD-1 cells
Protocol: In specific, the 293F-mouse PD-1 cells and GS-J2/PD-1 cells were respectively harvested from cell culture flasks, washed twice and re-suspended in PBS containing 2% v/v Fetal Bovine Serum (FACS buffer). Then, 2×10⁵ cells per well were incubated in 96 well-plates with 100 μl of the anti-PD1 antibodies or controls at various concentrations for 40 minutes on ice. […] Following an incubation of 40 minutes at 4° C. in dark, cells were washed three times and re-suspended in FACS buffer. Fluorescence was measured using a Becton Dickinson FACS Canto II-HTS equipment and plotted against antibody concentrations. Data was analyzed using GraphPad Prism software and EC₅₀ values were reported.
For the cell-based binding FACS, R-Phycoerythrin AffiniPure Goat Anti-human IgG Fcγ fragment specific (Cat#:109-115-098, Jackson ImmunoResearch) was used for the humanized antibodies, with 1:1000 dilution in FACS buffer, 100 μl/well.

[3] = biological target: T2, cynomolgus PD-1-his protein (Cat#:PD1-05223, Acro biosystems Inc.) (cynomolgus, UniProt B0LAJ3 25-170); experiment: indirect ELISA on coated cynomolgus PD-1-his
T2 construct: Bought protein used in Biacore and indirect ELISA; also called monkey PD-1; Cyno PD-1

[4] = biological target: T3, human PD-1-his protein prepared in-house (human, UniProt Q15116 25-167, biotin-labeled (sites not given)); experiment: capture ELISA, antibody captured, biotin human PD-1-his detected
T3 construct: also called biotin labeled human PD-1-his
Protocol: Briefly, 96-well micro plates were coated with 100 μl 2 μg/ml AffiniPure Goat Anti-Mouse IgG F(ab′)₂ fragment specific (Cat#:115-005-072, Jackson lmmunoResearch) or Goat-anti-human IgG (Cat#:109-005-097, Jackson ImmunoResearch, for the positive control and negative control) in PBS overnight at 4° C. Plates were washed once with wash buffer (PBST, PBS+0.05% Tween-20) and then blocked with 200 μl/well blocking buffer (5% w/v non-fatty milk in PBST) for 2 hours at 37° C. […] After a final wash, plates were incubated with 100 μl/well TMB (Cat#:TMB-S-002, Innoreagents) at room temperature.
For the capture ELISA, 96-well plates were coated with 100 μl 2 μg/ml AffiniPure Goat Anti-Human IgG, Fcγ fragment specific (Cat#:109-005-098, Jackson Immunoresearch) instead of AffiniPure goat-anti-mouse IgG F(ab′)₂ fragment specific.

[5] = biological target: T4, in house made human PD-1-Fc protein (human, biotin-labeled (sites not given)); experiment: competitive ELISA: biotin human PD-1-Fc + antibody on coated human PD-L1-Fc (competitor)
T4 construct: also called biotin-labeled human PD-1-Fc
Protocol: Briefly, 100 μl human PD-L1-Fc protein (prepared in-house with SEQ ID NO: 28) at 2 μg/mL in carbonate/bicarbonate buffer (pH 9.6) was coated on 96-well micro plates overnight at 4° C., Plates were washed with wash buffer (PBS+0.05% w/v Tween-20, PBST), and blocked with 5% w/v non-fatty milk in PBST for 2 hours at 37° C. […] After incubation at 37° C. for 40 minutes, plates were washed using wash buffer. […] Plates were washed again using wash buffer. Finally, TMB was added and the reaction was stopped using 1M H₂SO₄. The absorbance was read on a microplate reader using dual wavelength mode with 450 nm for TMB and 630 nm as the reference wavelength, then the OD (450-630) values were plotted against antibody concentrations. Data was analyzed using Graphpad Prism software and IC₅₀ values were reported.

[6] = biological target: T3, human PD-1-his protein prepared in-house; experiment: competitive ELISA: biotin human PD-1-his + antibody on coated Pembrolizumab (competitor)
Protocol: ELISA plates were washed once with wash buffer (PBST, PBS+0.05% Tween-20) and then blocked with 200 μl/well blocking buffer (5% w/v non-fatty milk in PBST) for 2 hours at 37° C. […] After incubation at 37° C. for 40 minutes, plates were washed using wash buffer, added and incubated with 100 μl/well Peroxidase Streptavidin for 40 minutes at 37° C. Plates were washed again using wash buffer. Finally, TMB was added and the reaction was stopped using 1M H₂SO₄. The absorbance was read on a microplate reader using dual wavelength mode with 450 nm for TMB and 630 nm as the reference wavelength, and the OD (450-630) values were plotted against antibody concentrations. Data was analyzed using Graphpad Prism software and IC₅₀ values were reported.

[7] = biological target: T5, human PD-1-his protein (Cat#:PD1-H5221, Acro biosystems Inc.) (human, UniProt Q15116 25-167); experiment: BLI (Octet RED96), supernatant antibody captured on AHC sensor, human PD-1-his in solution, 1:1 fit
T5 construct: not shown: his tag
Protocol: Briefly, AHC biosensors (anti-human IgG Fe capture, from ForteBio) were presoaked with 10 mM glycine (pH 1.5) for 3 seconds, and then dipped in a well with running buffer (0.5% w/v BSA in PBST) for 3 seconds, the soaking and dipping steps were repeated for three times. […] A new baseline was run for 100 seconds in another well with running buffer. Then the sensors were dipped in a well with serially diluted human PD-1-his protein (Cat#:PD1-H5221, Acro biosystems Inc., starting at 100 nM with a two-fold serial dilution) in running buffer for 120 seconds, and then immersed in a baseline well for […]. Finally, sensors were presoaked with 10 mM glycine (pH 1.5) for 30 seconds, and then were dipped in a well with running buffer for 30 seconds. The association and dissociation curves were fit to a 1:1 Langmuir binding model using ForteBio Data Analysis 8.1 evaluation software.

[8] = biological target: T4, in house made human PD-1-Fc protein; experiment: blocking FACS: biotin human PD-1-Fc + antibody on GS-C2/PD-L1 cells (competitor: cell-surface human PD-L1)
Protocol: GS-C2/PDL1 cells were harvested from cell culture flasks at the log phase, washed twice and re-suspended in PBS containing 2% v/v Fetal Bovine Serum (FACS buffer). GS-C2/PD-L1 cells, 0.6×10⁵ cells per welt, were incubated in 96 well-plates with 100 the antibody/PD1-Fc mixture for 40 minutes at 4° C. Cells were washed twice with FACS buffer, added with 100 R-Phycoerythrin Streptavidin (1:500 dilution in FACS buffer, Cat#:016-110-084, Jackson Immunoresearch), and incubated for 40 minutes at 4° C. in dark. Cells were washed twice and re-suspended in FACS buffer. Fluorescence was measured using a Becton Dickinson FACS Canto II-HTS equipment. Data was analyzed using Graphpad Prism software and IC₅₀ values were reported.

Binder	Cell-based functional assay (EC50, nM) [1]	EC50 [2]	EC50 [3]	EC50 [4]	IC50 [5]	IC50 [6]	Kd [7]	koff [7]	kon [7]	IC50 [8]
B1	9.3 nM	0.66 nM	0.9 nM	0.21 nM	0.35 nM	0.54 nM	1.01 nM	0.000213 s⁻¹	211000 M⁻¹ s⁻¹	0.54 nM
B2							1.5 nM	0.000356 s⁻¹	237000 M⁻¹ s⁻¹	
B3							1.49 nM	0.000294 s⁻¹	197000 M⁻¹ s⁻¹	
B4							1.59 nM	0.000385 s⁻¹	242000 M⁻¹ s⁻¹	
B5							1.54 nM	0.000317 s⁻¹	206000 M⁻¹ s⁻¹	
B6							1.84 nM	0.000428 s⁻¹	233000 M⁻¹ s⁻¹	
B7							1.53 nM	0.000296 s⁻¹	194000 M⁻¹ s⁻¹	
B8							1.63 nM	0.000413 s⁻¹	253000 M⁻¹ s⁻¹	
B9							1.49 nM	0.00027 s⁻¹	182000 M⁻¹ s⁻¹	
